This is an account of results in patent US7745587 (DYAX, dated 2010).

Experiment [1] has as its target T1, human MMP-14 (human, UniProt P50281 112-541, limits assumed).
T1 construct: Soluble MMP-14 used in selection, ELISA (biotinylated) and enzymatic assays; also called hMMP-14; bhMMP-14 (biotinylated human MMP-14)
The experiment can be described thus: enzymatic inhibition assay, 2 nM MMP-14, 18 uM substrate Mca-Pro-Leu-Ala-Cys(Mob)-Trp-Ala-Arg-Dap(Dnp)-NH2; rate against [IgG] 0-50 nM. As for the experimental part: (§1) K_i studies were performed using an enzymatic assay at substrate [Mca-Pro-Leu-Ala-Cys(Mob)-Trp-Ala-Arg-Dap(Dnp)-NH_2] concentrations of 10 μM, 14 μM and 18 μM. […] The concentration of MMP-14 was 2 nM.

Experiment [2] deals with T1, human MMP-14. Kind of experiment: enzymatic assay, IgG, 2 nM MMP-14, peptide substrate at 10, 14, 18 µM; highest Ki measured. As for the experimental part:
as §1

The target in experiment [3] is T1, human MMP-14. Kind of experiment: enzymatic inhibition assay, 2 nM MMP-14, 14 uM substrate Mca-Pro-Leu-Ala-Cys(Mob)-Trp-Ala-Arg-Dap(Dnp)-NH2; rate against [IgG] 0-50 nM. As for the experimental part: as §1
For experiment [4], the target named is T1, human MMP-14. The experiment can be described thus: cell-based or functional assay.
In experiment [5] the target is T1, human MMP-14. The experiment can be described thus: enzymatic inhibition assay against 2 pM hMMP-14; rate (dF/min) against [I] 0-100 nM; value taken from the line under the panel marked Parental, not from its inset table.
The target in experiment [6] is T1, human MMP-14. The experiment can be described thus: enzymatic inhibition assay, 2 nM MMP-14, 10 uM substrate Mca-Pro-Leu-Ala-Cys(Mob)-Trp-Ala-Arg-Dap(Dnp)-NH2; rate against [IgG] 0-50 nM. As for the experimental part:
as §1

In experiment [7] the target is T1, human MMP-14. The experiment can be described thus: enzymatic inhibition assay against 2 pM hMMP-14; rate (dF/min) against [I] 0-100 nM.
The target of experiment [8] is mouse MMP-14 in arthritic knee joints of C57Bl6 mice (mouse, UniProt P53690 112-582). The experiment can be described thus: immunohistochemistry of mouse joints, acute SCW-induced arthritis.
The target in experiment [9] is T1, human MMP-14. Kind of experiment: enzymatic inhibition assay against 2 pM hMMP-14; rate (dF/min) against [I] 0-50 nM.

B1: M0037-D01 IgG (antibody, V domains shown)
VH: EVQLLESGGGLVQPGGSLRLSCAASGFTFSMYMMIWVRQAPGKGLEWVSSIYPSGGNTMYADSVKGRFTISRDNSKNTLYLQMNSLRAEDTAVYYCATGVLRYFDWDAGSGMDVWGQGTTVTVSS
VL: DIQMTQSPSSLSASVGDRVTITCRASQGIRNDLGWYQQKPGKAPKRLIYVASSLQSGVPSRFSGSGSGTEFTLTISSLQPEDFATYYCLQHNSYPWTFGQGTKVEIK
notes: IgG of the Fab
On to B1, for which the Ki came to 2 nM in experiment [1], 2.9 nM in experiment [2] and 1.7 nM in [3]. The “IC50 of MMP-14 inhibition (MMP-14 at 2 pM), IgG” value (“IC50 of MMP-14 inhibition” below) in [4] is 1.7 nM.

B2: M0033-H07 IgG (antibody, V domains shown)
VH: EVQLLESGGGLVQPGGSLRLSCAASGFTFSVYGMVWVRQAPGKGLEWVSVISSSGGSTWYADSVKGRFTISRDNSKNTLYLQMNSLRAEDTALYYCARPFSRRYGVFDYWGQGTLVTVSS
VL: DIQMTQSPSSLSASVGDRVTITCRASQGIRNFLAWYQQKPGKVPKLLVFGASALQSGVPSRFSGSGSGTDFTLTISGLQPEDVATYYCQKYNGVPLTFGGGTKVEIK
notes: IgG of the Fab
For the molecule B2, in experiment [5], the IC50 was 12.2 nM. The Ki in [2] is 4 nM; in [3] it was 2.7 nM; in [6], 3.3 nM. In addition, the “IC50 of MMP-14 inhibition” value in experiment [4] amounted to 5.1 nM.

B3: M0043-G02 IgG (antibody, V domains shown)
VH: EVQLLESGGGLVQPGGSLRLSCAASGFTFSWYPMFWVRQAPGKGLEWVSGIYSSGGPTDYADSVKGRFTISRDNSKNTLYLQMNSLRAEDTAVYYCAKDTLGRYYDFWSGYSYGMDVWGQGTTVTVSS
VL: DIQMTQSPGTLSLSPGERATLSCRASQSVSSSYLAWYQQKPGQAPRLLIYGASSRATGIPDRFSGSGSGTDFTLTISRLEPEDFAVYYCQSGVTFGGGTKVEIK
notes: IgG of the Fab
Regarding B3, the Ki in [1] turned out to be 1.1 nM; in experiment [2], 1.2 nM; in [6], 0.7 nM. Moreover, in experiment [4], the “IC50 of MMP-14 inhibition” value is 0.3 nM.

B4: M0037-C09 IgG (antibody, V domains shown)
VH: EVQLLESGGGLVQPGGSLRLSCAASGFTFSHYEMFWVRQAPGKGLEWVSSISPSGGQTHYADSVKGRFTISRDNSKNTLYLQMNSLRAEDTAVYYCATDRTYYDFWSGYGPLWYWGQGTLVTVSS
VL: DIQMTQSPLSLPVTLGESASVSCRSSQSLLHENGHNYLDWYLQKPGQSPQLLIYLGSNRASGVPDRFSGSGSGTDFTLKISRVEAEDVGVYYCMQSLKTPPTFGPGTKVEIK
notes: IgG of the Fab; also called M037-C09
For the molecule B4, the inhibition constant (Ki) in experiment [2] was 8.6 nM; in experiment [3] it was 6.3 nM; in [6] it was 7.2 nM. Besides, the “IC50 of MMP-14 inhibition” value in experiment [4] was determined as 4.2 nM.

B5: M0038-F01 IgG (antibody, V domains shown)
VH: EVQLLESGGGLVQPGGSLRLSCAASGFTFSLYSMNWVRQAPGKGLEWVSSIYSSGGSTLYADSVKGRFTISRDNSKNTLYLQMNSLRAEDTAVYYCARGRAFDIWGQGTMVTVSS
VL: DIQMTQSPSSLSAFVGDKVTITCRASQSVGTYLNWYQQKAGKAPELLIYATSNLRSGVPSRFSGSGSGTDFTLTINTLQPEDFATYYCQQSYSIPRFTFGPGTKVDIK
notes: IgG of the Fab
B5 gave an IC50 in experiment [7] of 8.3 nM. Further, the values for the Ki in experiment [2], in [3] and in experiment [6] were 1.2 nM, 0.9 nM and 0.6 nM, respectively. Further, the binding result in [8] was “binds”. The “IC50 of MMP-14 inhibition” value in experiment [4] stood at 2 nM.

B6: M0038-F01 germline (antibody, human IgG1, kappa, V domains shown)
VH: B5 VH
VL: DIQMTQSPSSLSASVGDRVTITCRASQSVGTYLNWYQQKPGKAPKLLIYATSNLRSGVPSRFSGSGSGTDFTLTISSLQPEDFATYYCQQSYSIPRFTFGPGTKVDIKR
notes: Full chains; the ranges 20-464 and 20-234 come from claims 16, 18 and 20
Regarding B6, in experiment [9], 5.13 nM corresponded to half-maximal inhibition (IC50).

As usually defined, the Ki is a measure of affinity in units of concentration, obtained from inhibition or displacement. Higher therefore signals a looser hold on the target. For orientation: IC50 means the concentration needed to halve the response being measured.
